Source: article PMC8403554 (Cell, 2019)

B1: humanized 31A.v11 IgG4 anti-tryptase antibody (antibody, V domains shown)
VH: EVQLVESGGGLVQPGGSLRLSCAASGFTFSDYGMVWVRQAPGKGLEWVAFISSGSSTVYYADTMKGRFTISRDNSKNTLYLQMNSLRAEDTAVYYCTRRNYDDWYFDVWGQGTLVTVSS
VL: DIQMTQSPSSLSASVGDRVTITCSASSSVTYMYWYQQKPGKSPKPWIYRTSDLASGVPSRFSGSGSGTDFTLTISSLQPEDFATYYCQHYHSYPLTFGQGTKVEIK
B2: tetrameric βI-tryptase (insect cells) (enzyme)
chain: not shown
B3: soybean trypsin inhibitor (natural protein, UniProt P01070 25-205, looked up)
chain: DFVLDNEGNPLENGGTYYILSDITAFGGIRAAPTGNERCPLTVVQSRNELDKGIGTIISSPYRIRFIAEGHPLSLKFDSFAVIMLCVGIPTEWSVVEDLPEGPAVKIGENKDAMDGWFRLERVSDDEFNNYKLVFCPQQAEDDKCGDIGISIDHDDGTRRLVVSKNKPLVVQFQKLDKESL

How the values were obtained:
[1] = target: human βI-tryptase monomer (Homo sapiens, beta-I allele of TPSAB1, UniProt Q15661); assay: SPR
[2] = target: the molecule itself; assay: SEC
[3] = target: B2; assay: crystal structure

Sequence of human βI-tryptase monomer (Q15661 31-275): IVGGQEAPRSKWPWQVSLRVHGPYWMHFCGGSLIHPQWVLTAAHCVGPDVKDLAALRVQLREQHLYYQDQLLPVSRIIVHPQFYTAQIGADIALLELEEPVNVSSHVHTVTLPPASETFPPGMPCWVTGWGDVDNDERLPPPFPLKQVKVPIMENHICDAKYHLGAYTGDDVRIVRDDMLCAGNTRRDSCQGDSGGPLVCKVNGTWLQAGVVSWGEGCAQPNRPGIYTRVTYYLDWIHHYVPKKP

B1 was tested. Which “fold improvement in binding affinity (Kd) over the parental 31A clone” value [1] did it give?
Its value is about 10 fold.

Which “stoichiometry N” value [2] does the source give for B2 here?
The value was 4.

Does B3 bind [3]?
Result: binds
